Experimental data taken from paper PMC3945225, “RBPJ, the Major Transcriptional Effector of Notch Signaling, Remains Associated with Chromatin throughout Mitosis, Suggesting a Role in Mitotic Bookmarking”.

Biological target: Flag-RBPJ (mouse, UniProt P31266-2 1-487)
Experiment: EMSA; 1 nM DNA; 12 mM Hepes pH 7.9, 10 mM Tris-HCl pH 7.5, 60 mM KCl, 8% glycerol, 4 mM MgCl2, 0.02% NP40, 30 C; 5% PAGE 0.5x TBE
Details: protein: recombinant; tags: Flag; label: 32P (T4 PNK); blunt

Sequence of Flag-RBPJ (P31266 other isoform, or with tags, fused parts or gaps): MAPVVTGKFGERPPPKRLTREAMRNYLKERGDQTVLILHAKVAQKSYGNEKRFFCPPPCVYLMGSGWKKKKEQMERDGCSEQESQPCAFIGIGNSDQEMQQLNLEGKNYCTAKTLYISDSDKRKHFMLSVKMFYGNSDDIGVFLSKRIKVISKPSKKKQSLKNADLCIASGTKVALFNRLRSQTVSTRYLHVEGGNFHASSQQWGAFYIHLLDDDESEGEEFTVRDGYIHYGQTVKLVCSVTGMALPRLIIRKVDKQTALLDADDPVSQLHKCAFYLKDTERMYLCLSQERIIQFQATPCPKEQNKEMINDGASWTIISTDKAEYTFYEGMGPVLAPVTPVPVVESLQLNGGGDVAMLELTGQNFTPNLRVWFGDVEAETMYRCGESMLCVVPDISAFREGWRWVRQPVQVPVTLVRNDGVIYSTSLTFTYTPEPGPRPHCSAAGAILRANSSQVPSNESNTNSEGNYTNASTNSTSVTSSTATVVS

B1: 16 bp RBPJ motif DNA (dsDNA)
DNA 1: CACTGGGAACCTACCC
DNA 2: GGGTAGGTTCCCAGTG
B1: binds.
